Experimental data from patent publication US20180236032A1.
Where two headings read alike, the source gives them in different places.

Experiments:
Assay in all cases: cell-based or functional assay
[1] = target: FGFR3c expressed on BaF3 cells (BaF3/FGFR3c)
[2] = target: FGFR3c expressed on BaF3 cells (BaF3/FGFR3c); remark: listed apart in the source
[3] = target: FGFR3c expressed on BaF3 cells (BaF3/FGFR3c); remark: listed apart in the source

recombinant truncated FGF-18 (trFGF-18) (from UniProt O76093 28-196) (ligand)
BaF3/FGFR3 cell proliferation, O.D. (WST-1), Sprifermin 100 ng/mL (CTR+) [1]: 0.5 O.D.
BaF3/FGFR3 cell proliferation, Optical Density (WST-1), Sprifermin 100 ng/mL (CTR+) [1]: 0.5 O.D.
BaF3/FGFR3 cell proliferation, O.D. (WST-1), Sprifermin 100 ng/mL (CTR+) [2]: 0.194 O.D.
BaF3/FGFR3 cell proliferation, O.D. (WST-1), Sprifermin 100 ng/mL (CTR+) [3]: 0.15 O.D.
